Source: the supplement of paper PMC9732359
± gives the uncertainty stated by the source.

Assay: protein stability index of a GFP-peptide fusion (yeast GPS) (PSI 1-4); higher = more stable; sorted into four equal gates, so the index is relative within each strain
Method in brief: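 The protein stability index of a peptide was calculated by multiplying its read frequency in each gate by that gate's number and adding the products. The peptides were tiled 17-residue stretches of yeast proteins, fused downstream of GFP on a Cherry-expressing plasmid and carried in yeast as a pooled library. Mid-log cultures in leucine-free medium were sorted into four equal gates by GFP/Cherry ratio, and each gate's plasmids were PCR-amplified and Illumina-sequenced.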

Row | Sequence | protein stability index (doa10∆) | protein stability index (pdr5∆) | protein stability index (san1∆) | protein stability index (ubr1∆)
1 | GFIDASCIAVMAGLMHF [RRP45] | 1.48 ± 0.041 | 1.55 ± 0.04 | 1.85 ± 0.082 | 1.46 ± 0.031
2 | EKDCSLRAIEKNDDNSC [YIL149C/MLP2] | 2.32 ± 0.1 | 2.67 ± 0.077 | 3.06 ± 0.082 | 1.86 ± 0.11
3 | EKYGKQVYDLLKRFPKM [BRR2] | – | – | 2.99 ± 0.19 | 3.31 ± 0.14
4 | NFIVHSPMLKRIKITAN [GRR1] | 1.48 ± 0.072 | 1.2 ± 0.075 | 1.29 ± 0.13 | 1.19 ± 0.061
5 | TYRYVSVSVLVDRLKIG [RPS25A] | 2.28 ± 0.091 | 1.48 ± 0.08 | 1.72 ± 0.072 | 1.45 ± 0.039
6 | QRMHAIHEIDERLAKVN [NNF1] | 1.44 ± 0.093 | 2.59 ± 0.14 | 2.42 ± 0.085 | 2.14 ± 0.061
7 | SILGKFCPIVEEIVSNS [YCS4] | 1.95 ± 0.091 | 1.51 ± 0.12 | 1.6 ± 0.14 | 1.55 ± 0.066
8 | EELRGQQTEHETEIKDL [SMC4] | 3.34 ± 0.13 | 3.43 ± 0.094 | 3.48 ± 0.067 | 3.37 ± 0.053
9 | RAKKTRALRRALTKFEA [RPL35A] | – | – | – | 3.11 ± 0.15
10 | FGKLLQAYQFLNTFGSK [ITC1] | 1.5 ± 0.064 | 1.26 ± 0.073 | 1.19 ± 0.12 | 1.31 ± 0.094
11 | TLDVEAFKSVVSTETFE [RPL27A] | 2.4 ± 0.069 | 2.74 ± 0.051 | 2.59 ± 0.051 | 2.46 ± 0.053
12 | GGNFKDLSTLVHSSSPS [GAL11] | 1.48 ± 0.056 | 1.46 ± 0.045 | 1.59 ± 0.089 | 1.38 ± 0.059
13 | EELFTQLFHSMSIVFGD [UBP6] | 3.17 ± 0.087 | 3.35 ± 0.087 | 3.38 ± 0.05 | 2.98 ± 0.089
14 | GHNDWVSQVRVVPNEKA [ASC1] | 2.3 ± 0.1 | 2.85 ± 0.076 | 2.94 ± 0.066 | 2.69 ± 0.065
15 | MPKKRASNGRNKKGRGH [RPS26A] | 3.3 ± 0.17 | 3.43 ± 0.19 | 2.82 ± 0.24 | 3.5 ± 0.083
16 | LPPNWKYESATASALVN [RPS13] | 2.21 ± 0.081 | 2.59 ± 0.095 | 2.69 ± 0.064 | 2.12 ± 0.049
17 | LLNILSGLPTCDYYNTF [RPN2] | 2.44 ± 0.1 | 2.73 ± 0.13 | 2.03 ± 0.16 | 2.3 ± 0.095
18 | SINGGIVVAMTGKDCVA [PUP3] | – | 2.39 ± 0.21 | – | –
19 | YAIKKKDELERVAKSNR [RPS5] | 3.41 ± 0.061 | 3.35 ± 0.073 | 3.44 ± 0.043 | 3.23 ± 0.068
20 | QAQAQAQANNNNNGLPQ [GAL11] | 3.04 ± 0.037 | 3.1 ± 0.035 | 2.952 ± 0.029 | 3.05 ± 0.033
21 | SLQDNSAAINNEDARAI [RPN4] | 3.12 ± 0.078 | 3.19 ± 0.057 | 2.94 ± 0.055 | 3.18 ± 0.05
22 | STDELVGSPLTVSILQE [POP8] | 2.08 ± 0.084 | 2.62 ± 0.11 | 2 ± 0.1 | 2.26 ± 0.084
23 | EMMKMMQDPQMQQMAKQ [SRP54] | 3.07 ± 0.057 | 2.76 ± 0.067 | 2.77 ± 0.039 | 2.67 ± 0.038
24 | QDGGIMGSLINGITLAL [SKI6] | 3.11 ± 0.075 | 2.58 ± 0.058 | 2.53 ± 0.057 | 2.66 ± 0.047
25 | FKMNEIVPLHSPFLMGH [SEC65] | 2.71 ± 0.067 | 2.59 ± 0.072 | 2.59 ± 0.082 | 2.62 ± 0.057
26 | LTNMMSPMGNAYSMGAQ [PGD1] | 2.34 ± 0.062 | 2.64 ± 0.077 | 2.49 ± 0.084 | 2.68 ± 0.044
27 | TIKILPENTAMFNPLHE [YMR129W/POM152] | 2.42 ± 0.064 | 2.36 ± 0.053 | 2.36 ± 0.058 | 2.5 ± 0.05

Row | Sequence | protein stability index (doa10∆) | protein stability index (pdr5∆) | protein stability index (san1∆) | protein stability index (ubr1∆)
28 | IGARSQGAKTYLERTLD [PRE5] | 3.36 ± 0.13 | 3.34 ± 0.069 | 3.23 ± 0.07 | 3.22 ± 0.066
29 | LKNKNFKCQEKDKGVYV [SIR2] | 3.53 ± 0.22 | 3.03 ± 0.093 | 3.38 ± 0.077 | 3.27 ± 0.17
30 | ELTAQGYDPALLNILSG [RPN2] | 2.76 ± 0.091 | 3.06 ± 0.12 | 2.58 ± 0.071 | 2.89 ± 0.079
31 | SYTAFSRLTLLLRALKT [PRP8] | 1.27 ± 0.042 | 1.19 ± 0.037 | 1.24 ± 0.082 | 1.25 ± 0.035
32 | KPAFSFGINTNTTKTAD [YLR335W/NUP2] | 2.98 ± 0.098 | 3.09 ± 0.1 | 3.11 ± 0.063 | 3.46 ± 0.064
33 | ERSSKRLAKKPSMKKIK [SIR3] | 3.18 ± 0.08 | 3.12 ± 0.084 | 3.06 ± 0.057 | 3.06 ± 0.079
34 | SVKESTGMSSMSPFLRK [SRB4] | 3.42 ± 0.14 | 2.6 ± 0.23 | 2.1 ± 0.25 | 3.15 ± 0.079
35 | FLKEVLSDLSSPVQDWN [YML103C/NUP188] | 2.92 ± 0.088 | 3.03 ± 0.097 | 2.76 ± 0.11 | 2.96 ± 0.068
36 | IQDSNGDVKNMEDVKIQ [SWI3] | 2.86 ± 0.071 | 2.8 ± 0.091 | 2.41 ± 0.1 | 2.94 ± 0.061
37 | CDSYLDADKELSFEINV [BRR2] | 2.64 ± 0.08 | 2.73 ± 0.062 | 2.92 ± 0.057 | 2.7 ± 0.047
38 | GCIKIYSSRVDSVTTET [BRN1] | 2.43 ± 0.14 | 2.52 ± 0.13 | 2.35 ± 0.21 | 2.12 ± 0.17
39 | SLLKTKLKQQSSTDIPS [RRI1] | 2.15 ± 0.05 | 2.4 ± 0.054 | 2.21 ± 0.082 | 2.44 ± 0.062
40 | KHEDFVEGISEVQARKS [RPT5] | 3.7 ± 0.24 | – | – | 3.41 ± 0.2
41 | ADNDGPRINNISAEDRA [SNF2] | 2.79 ± 0.15 | 3.16 ± 0.18 | 2.9 ± 0.1 | 1.52 ± 0.24
42 | SNAVTQTNIWEENWDDV [SEM1] | 3.36 ± 0.085 | 3.46 ± 0.12 | 3.32 ± 0.084 | 3.43 ± 0.14
43 | KELNEKIQKLEEDDEGE [RPN7] | 1.2 ± 0.11 | 1.61 ± 0.12 | 1.25 ± 0.15 | 1.06 ± 0.08
44 | IMWQLLDGVSYLHQNWV [SSN3] | 1.61 ± 0.074 | 1.59 ± 0.08 | 1.23 ± 0.12 | 1.75 ± 0.076
45 | PSANNSSSIKSTGPTGA [RRP4] | 3.32 ± 0.038 | 3.28 ± 0.043 | 3.349 ± 0.029 | 3.348 ± 0.032
46 | EDLLECLDRCKEQYNRY [MTR3] | 3.18 ± 0.11 | 3.46 ± 0.08 | 3.24 ± 0.079 | 3.38 ± 0.085
47 | LLICIGTSLKVAPVSEI [SIR2] | 1.91 ± 0.11 | 2.01 ± 0.077 | 2.29 ± 0.18 | 1.79 ± 0.05
48 | HSLREYINGKATALANL [RPO31] | 3.06 ± 0.086 | 3.21 ± 0.095 | 2.57 ± 0.088 | 2.99 ± 0.068
49 | LSLHTGFIENCNGSALV [MTR3] | 2.65 ± 0.066 | 3 ± 0.06 | 2.79 ± 0.058 | 2.74 ± 0.067
50 | LKQHNQNNLPPNFFLTL [BRR2] | 2.81 ± 0.064 | 3.07 ± 0.069 | 2.84 ± 0.069 | 2.94 ± 0.071
51 | AGNTTTGGGLFGSKPTG [YGL172W/NUP49] | 2.4 ± 0.084 | 2.18 ± 0.17 | 2.64 ± 0.11 | 2.21 ± 0.097
52 | KTITLEVESSDTIDNVK [RPS31] | 2.88 ± 0.1 | 3.08 ± 0.062 | 2.77 ± 0.12 | 2.64 ± 0.086
53 | LTSNLSNYSRTMTISHL [YJL039C/NUP192] | 2.56 ± 0.074 | 2.32 ± 0.061 | 1.98 ± 0.084 | 2.48 ± 0.04
